{
  "source": "patent US20090028881A1",
  "about": "(ROCHE PALO ALTO, published 2009)",
  "binders": {"B1": {"name": "<CCR5>Pz03.1C5 (antibody, V domains shown)", "VH": "QVQLKQSGPGLVRPSQSLSITCTVSGFPLGIFGVHWVRQSPGKGLEWLGVIWKGGNTDYNAAFMSRLRITKDNSKSQVFFRMNSLQTDDTAIYYCAKVNLADAMDYWGQGTSVIVSS", "VL": "DIQMTQSPASLSASVGETVTITCRASGNIHGYLAWFQQKQGKSPQLLVYNTKTLAEGVPSRFSGSGSGTQFSLKINSLQPEDFGNYYCQHHYDLPRTFGGGTKLEIKR", "notes": "also called Antibody C; m<CCR5>Pz03.1C5"}},
  "molecular_target": "T1, human CCR5 (wild-type) (human, UniProt P51681 1-352)",
  "T1 construct": "also called wild-type CCR5",
  "T1 sequence (P51681 whole entry)": "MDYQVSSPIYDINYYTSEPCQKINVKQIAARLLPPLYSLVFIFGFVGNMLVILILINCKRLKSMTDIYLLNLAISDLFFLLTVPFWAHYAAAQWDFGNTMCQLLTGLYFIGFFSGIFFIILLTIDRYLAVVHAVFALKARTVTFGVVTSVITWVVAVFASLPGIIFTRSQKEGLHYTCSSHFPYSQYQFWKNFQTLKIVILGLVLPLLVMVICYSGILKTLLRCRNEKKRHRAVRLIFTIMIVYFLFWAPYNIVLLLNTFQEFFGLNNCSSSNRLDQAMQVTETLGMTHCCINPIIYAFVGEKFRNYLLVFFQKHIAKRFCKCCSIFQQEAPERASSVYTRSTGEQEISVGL",
  "experiment": "alanine scanning epitope mapping",
  "description": "Epitope binding is investigated by using alanine scanning according to the method described by W. C. Olson et al. (J. Virol. (1999) 73:4145-55) for epitope mapping. […] 100% epitope binding is defined for wild-type CCR5. A further preferred anti-CCR5 antibody binds to the same epitope as antibody C binds.",
  "data": [
    {"binder": "B1", "values": [
      {"measurement": "binding result", "result": "binds"}
    ]}
  ]
}
